Tests used:
AUC [1] = biological target: the molecule itself; assay: AUC
AUC [2] = biological target: the molecule itself; assay: AUC; remark: listed apart in the source

Row | Protein | stoichiometry N (AUC [1]) | percent as octamer (AUC [2]) [%]
1 | Sen[K252,255A] (enzyme, UniProt Q5XD01 1-435, looked up) MSIITDVYAREVLDSRGNPTLEVEVYTESGAFGRGMVPSGASTGEHEAVELRDGDKSRYLGLGTQKAVDNVNNIIAKAIIGYDVRDQQAIDRAMIALDGTPNKGKLGANAILGVSIAVARAAADYLEVPLYTYLGGFNTKVLPTPMMNIINGGSHSDAPIAFQEFMIMPVGAPTFKEGLRWGAEVFHALKKILKERGLVTAVGDEGGFAPKFEGTEDGVETILKAIEAAGYEAGENGIMIGFDCASSEFYDAERAVYDYTKFEGEGAAVRTSAEQVDYLEELVNKYPIITIEDGMDENDWDGWKVLTERLGKRVQLVGDDFFVTNTEYLARGIKENAANSILIKVNQIGTLTETFEAIEMAKEAGYTAVVSHRSGETEDSTIADIAVATNAGQIKTGSLSRTDRIAKYNQLLRIEDQLGEVAQYKGIKSFYNLKK | 8 | ≥ 95
2 | Sen[K434,435A] (enzyme, UniProt Q5XD01 1-435, looked up) MSIITDVYAREVLDSRGNPTLEVEVYTESGAFGRGMVPSGASTGEHEAVELRDGDKSRYLGLGTQKAVDNVNNIIAKAIIGYDVRDQQAIDRAMIALDGTPNKGKLGANAILGVSIAVARAAADYLEVPLYTYLGGFNTKVLPTPMMNIINGGSHSDAPIAFQEFMIMPVGAPTFKEGLRWGAEVFHALKKILKERGLVTAVGDEGGFAPKFEGTEDGVETILKAIEAAGYEAGENGIMIGFDCASSEFYDKERKVYDYTKFEGEGAAVRTSAEQVDYLEELVNKYPIITIEDGMDENDWDGWKVLTERLGKRVQLVGDDFFVTNTEYLARGIKENAANSILIKVNQIGTLTETFEAIEMAKEAGYTAVVSHRSGETEDSTIADIAVATNAGQIKTGSLSRTDRIAKYNQLLRIEDQLGEVAQYKGIKSFYNLAA | 8 | ≥ 95
3 | Sen[K252,255,434,435A] (enzyme, UniProt Q5XD01 1-435, looked up) MSIITDVYAREVLDSRGNPTLEVEVYTESGAFGRGMVPSGASTGEHEAVELRDGDKSRYLGLGTQKAVDNVNNIIAKAIIGYDVRDQQAIDRAMIALDGTPNKGKLGANAILGVSIAVARAAADYLEVPLYTYLGGFNTKVLPTPMMNIINGGSHSDAPIAFQEFMIMPVGAPTFKEGLRWGAEVFHALKKILKERGLVTAVGDEGGFAPKFEGTEDGVETILKAIEAAGYEAGENGIMIGFDCASSEFYDAERAVYDYTKFEGEGAAVRTSAEQVDYLEELVNKYPIITIEDGMDENDWDGWKVLTERLGKRVQLVGDDFFVTNTEYLARGIKENAANSILIKVNQIGTLTETFEAIEMAKEAGYTAVVSHRSGETEDSTIADIAVATNAGQIKTGSLSRTDRIAKYNQLLRIEDQLGEVAQYKGIKSFYNLAA | 8 | ≥ 95
